This data set deals with Glucokinase (Homo sapiens). Nature of the data set: Induction of human pancreatic glucokinase activity assessed as maximal reaction rate at 5 mM glucose concentration.

B1: Hexokinase-4 (Homo sapiens), P35557 (protein)
chain: MLDDRARMEAAKKEKVEQILAEFQLQEEDLKKVMRRMQKEMDRGLRLETHEEASVKMLPTYVRSTPEGSEVGDFLSLDLGGTNFRVMLVKVGEGEEGQWSVKTKHQMYSIPEDAMTGTAEMLFDYISECISDFLDKHQMKHKKLPLGFTFSFPVRHEDIDKGILLNWTKGFKASGAEGNNVVGLLRDAIKRRGDFEMDVVAMVNDTVATMISCYYEDHQCEVGMIVGTGCNACYMEEMQNVELVEGDEGRMCVNTEWGAFGDSGELDEFLLEYDRLVDESSANPGQQLYEKLIGGKYMGELVRLVLLRLVDENLLFHGEASEQLRTRGAFETRFVSQVESDTGDRKQIYNILSTLGLRPSTTDCDIVRRACESVSTRAAHMCSAGLAGVINRMRESRSEDVMRITVGVDGSVYKLHPSFKERFHASVRRLTPSCEITFIESEEGSGRGAALVSAVACKKACMLGQ
On to B1, for which the Vmax was found to be 130%.
